From the supplement of paper PMC10126150
± gives the standard deviation of the averaged measurements.

Test system: ATP
Test: switch fluorescence ratio, 500 uM ATP over buffer (Cy3 cluster intensity, sum of 5 cycles each) (fold (ratio)); higher = stronger signal-on switching upon ATP binding; sequences stand for … in TCGTCGGCAGCGTCAGATGTGTATAAGAGACAGTTTTTTTTTTTTTTTTTTTTTTTTT…TC
Details: aptamer strand: ATP DNA aptamer (quencher-CACCTGGGGGAGTATTGCGGAGGAAGG + anchor), 100 nM annealed; ATP concentration: 500 uM
How it was run: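 For every switch-domain sequence, the fluorescence ratio is the mean of per-cluster values, each being summed target-cycle Cy3 intensity over summed buffer-cycle Cy3 intensity. Clusters outside 100-1000 RFU were excluded. On a modified Illumina MiSeq flow-cell, the Cy3-labelled switching-strand clusters were annealed to 100 nM quencher-labelled ATP aptamer, imaged in selection buffer and then after 15 min with 500 uM ATP at 22 °C. Five such cycles were run, with NaOH stripping and re-annealing between them.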
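Further: ATP exposure 15 min at 22 °C before imaging.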

| Sequence | switch fluorescence ratio |
| --- | --- |
| GGAGGGAGGG | 1.02 ± 0.059 |
| GGAGGGCAGG | 0.9882 ± 0.0096 |
| GGAGGGCCTG | 0.986 ± 0.013 |
| GGAGGGGAAG | 1.07 ± 0.14 |
| GGAGGGGAGT | 0.999 ± 0.014 |
| GGAGGGGATC | 0.998 ± 0.022 |
| GGAGGGGGGA | 1.09 ± 0.24 |
| GGAGGGTGTC | 0.988 ± 0.044 |
| GGAGGTCTAC | 1.03 ± 0.014 |
| GGAGTAGCAG | 1.02 ± 0.074 |
| GGAGTCATGG | 1.045 ± 0.0073 |
| GGAGTCCAGG | 1.15 ± 0.032 |
| GGAGTCCGTT | 1.02 ± 0.046 |
| GGAGTCGTTG | 0.968 ± 0.011 |
| GGAGTCTTGT | 1.01 ± 0.03 |
| GGAGTGATTT | 1 ± 0.017 |
| GGAGTGGGAT | 1.03 ± 0.034 |
| GGAGTGTTGG | 1.002 ± 0.0051 |
| GGAGTTAGGC | 1 ± 0.04 |
| GGAGTTCAGG | 0.9905 ± 0.0024 |
| GGAGTTTAAA | 0.999 ± 0.043 |
| GGATAAAAAT | 1.02 ± 0.025 |
| GGATAAATGC | 1.02 ± 0.043 |

| Sequence | switch fluorescence ratio |
| --- | --- |
| GGATAACGGG | 1.02 ± 0.023 |
| GGATAAGGAG | 0.99 ± 0.051 |
| GGATACGGTG | 1.08 ± 0.061 |
| GGATACGTTG | 1.02 ± 0.052 |
| GGATAGATGG | 0.986 ± 0.02 |
| GGATAGGATT | 1.025 ± 0.0054 |
| GGATAGTCGG | 1 ± 0.028 |
| GGATATAATG | 0.985 ± 0.019 |
| GGATATAGCC | 0.994 ± 0.013 |
| GGATATGATC | 1.03 ± 0.031 |
| GGATCCGTTG | 0.978 ± 0.021 |
| GGATCGTCGG | 0.96 ± 0.019 |
| GGATCGTTCC | 1.1 ± 0.017 |
| GGATCTTAGT | 0.996 ± 0.013 |
| GGATCTTTAT | 0.9932 ± 0.0096 |
| GGATGAGTGT | 0.982 ± 0.038 |
| GGATGCAATG | 1.16 ± 0.025 |
| GGATGCATAT | 0.9894 ± 0.0044 |
| GGATGGCGGT | 0.9846 ± 0.0069 |
| GGATGGGAGG | 1.046 ± 0.0092 |
| GGATGGGGCT | 1.02 ± 0.03 |
| GGATGGGGGA | 1.02 ± 0.03 |
| GGATGGGTGC | 0.9939 ± 0.0091 |

| Sequence | switch fluorescence ratio |
| --- | --- |
| GGATGGTTGG | 1.012 ± 0.0068 |
| GGATGTATCT | 0.995 ± 0.012 |
| GGATGTGCG | 0.961 ± 0.05 |
| GGATGTTTTG | 1.03 ± 0.015 |
| GGATTAAAGG | 1.03 ± 0.013 |
| GGATTAAATT | 0.9996 ± 0.0019 |
| GGATTAACTA | 0.9887 ± 0.0061 |
| GGATTAATG | 1.1 ± 0.12 |
| GGATTAGGGA | 1.01 ± 0.03 |
| GGATTCATGG | 1.01 ± 0.021 |
| GGATTCCGGG | 0.988 ± 0.027 |
| GGATTTAAAT | 0.976 ± 0.042 |
| GGATTTATTG | 1.02 ± 0.022 |
| GGATTTGAGG | 1 ± 0.026 |
| GGATTTGGAG | 0.993 ± 0.024 |
| GGATTTGGGG | 0.9878 ± 0.0073 |
| GGATTTGGTA | 0.978 ± 0.032 |
| GGATTTGTGA | 1.02 ± 0.022 |
| GGCAAAGCGT | 1.03 ± 0.025 |
| GGCAAAGGGG | 1.01 ± 0.041 |
| GGCAACCATA | 1.02 ± 0.032 |
| GGCAACGAAA | 1.039 ± 0.0099 |
| GGCAATATTT | 1.2 ± 0.061 |

| Sequence | switch fluorescence ratio |
| --- | --- |
| GGCAATTGTA | 1.03 ± 0.027 |
| GGCACAGATG | 1.02 ± 0.015 |
| GGCAGAAATG | 0.994 ± 0.011 |
| GGCAGAATAA | 1.05 ± 0.13 |
| GGCAGAGATC | 1.06 ± 0.077 |
| GGCAGATGAC | 0.9674 ± 0.0031 |
| GGCAGCCGGC | 1.03 ± 0.041 |
| GGCAGCGTGG | 0.994 ± 0.041 |
| GGCAGCTTTT | 1.05 ± 0.088 |
| GGCAGGAAAG | 1 ± 0.011 |
| GGCAGGCGGA | 1 ± 0.012 |
| GGCAGGGCTG | 0.974 ± 0.051 |
| GGCAGGGGCT | 1 ± 0.044 |
| GGCAGTCCGG | 0.9876 ± 0.0024 |
| GGCAGTTTGG | 1.01 ± 0.023 |
| GGCATAAGTA | 1.008 ± 0.0054 |
| GGCATAGCCC | 0.954 ± 0.024 |
| GGCATATTGT | 0.985 ± 0.025 |
| GGCATCGGTT | 0.977 ± 0.027 |
| GGCATCGTAG | 0.998 ± 0.021 |
| GGCATGAGGT | 1 ± 0.016 |
| GGCATTAGGT | 0.977 ± 0.042 |
| GGCATTTAAA | 0.983 ± 0.024 |

| Sequence | switch fluorescence ratio |
| --- | --- |
| GGCATTTTAT | 1.01 ± 0.061 |
| GGCCAATAAT | 0.991 ± 0.016 |
| GGCCAGGGTG | 2.29 ± 0.07 |
| GGCCCCCGGT | 1.1 ± 0.068 |
| GGCCCCGGAT | 1 ± 0.07 |
| GGCCCGATTT | 1.01 ± 0.024 |
| GGCCCGCGTT | 1.11 ± 0.065 |
| GGCCCGGTTT | 0.99 ± 0.029 |
| GGCCCGTGCA | 1.004 ± 0.0015 |
| GGCCCTGCGG | 1.02 ± 0.025 |
| GGCCGAGGTC | 1.02 ± 0.013 |
| GGCCGATTTT | 0.9813 ± 0.0042 |
| GGCCGTATCT | 1.03 ± 0.044 |
| GGCCTGAAAC | 0.9929 ± 0.0037 |
| GGCCTGGATC | 1.02 ± 0.057 |
| GGCCTGGGTA | 1 ± 0.031 |
| GGCCTGGGTT | 0.967 ± 0.0098 |
| GGCCTGGTTT | 1.03 ± 0.057 |
| GGCCTGTGTG | 1.02 ± 0.041 |
| GGCCTTAGGG | 0.987 ± 0.013 |
| GGCCTTATTG | 1 ± 0.031 |
| GGCCTTGTGT | 1.0357 ± 0.00094 |
| GGCGAAGGCC | 0.973 ± 0.02 |

| Sequence | switch fluorescence ratio |
| --- | --- |
| GGCGAATGGG | 0.98 ± 0.041 |
| GGCGAGCTGG | 0.9997 ± 0.0034 |
| GGCGAGGTGT | 1 ± 0.034 |
| GGCGAGTATG | 0.9522 ± 0.0037 |
| GGCGCAACGG | 1.05 ± 0.024 |
| GGCGCAATTT | 2.4 ± 0.27 |
| GGCGCCGGGC | 1.02 ± 0.022 |
| GGCGCCGTTG | 0.978 ± 0.019 |
| GGCGCCGTTT | 0.986 ± 0.023 |
| GGCGCTGTGA | 1.01 ± 0.022 |
| GGCGCTTATA | 1 ± 0.042 |
| GGCGGCATCT | 1.01 ± 0.023 |
| GGCGGCCGAT | 0.9707 ± 0.005 |
| GGCGGCGCGT | 1.04 ± 0.019 |
| GGCGGGAGGA | 1.02 ± 0.025 |
| GGCGGGGAGG | 1.01 ± 0.033 |
| GGCGGGGCTT | 0.968 ± 0.025 |
| GGCGGGGGTG | 1.04 ± 0.065 |
| GGCGGGTAGA | 1.043 ± 0.0093 |
| GGCGGTTAAG | 1.013 ± 7.9e-05 |
| GGCGGTTACT | 1.04 ± 0.015 |
| GGCGTACAAA | 0.985 ± 0.019 |
| GGCGTCAGAC | 1 ± 0.031 |

| Sequence | switch fluorescence ratio |
| --- | --- |
| GGCGTCAGGA | 1.01 ± 0.027 |
| GGCGTCCTCT | 1.05 ± 0.034 |
| GGCGTCTTCC | 1.01 ± 0.037 |
| GGCGTGTTGG | 1.02 ± 0.045 |
| GGCGTTGTCC | 1.02 ± 0.044 |
| GGCGTTGTTC | 0.984 ± 0.034 |
| GGCGTTTATC | 0.9746 ± 0.0018 |
| GGCTAAAAAC | 1 ± 0.039 |
| GGCTAAAGCG | 0.974 ± 0.012 |
| GGCTACAGGG | 0.999 ± 0.011 |
| GGCTAGAAAA | 1 ± 0.0099 |
| GGCTAGACGT | 1.031 ± 0.0023 |
| GGCTATCTGT | 1 ± 0.047 |
| GGCTCAGAGA | 1.004 ± 0.0045 |
| GGCTCAGGTA | 1.04 ± 0.013 |
| GGCTCATTAT | 0.9719 ± 0.0034 |
| GGCTCGGGGG | 1.03 ± 0.029 |
| GGCTCTCGTA | 0.992 ± 0.012 |
| GGCTCTTCGG | 0.989 ± 0.04 |
